Laboratory results from patent US20050282739A1.
Square brackets hold non-standard residues; d marks the D form. Ends that are not written are not given here. Nle = CCCC[C@H](N)C(=O)O

B1: metallopeptide 4-6 (peptide)
peptide: YV[Nle]GHFCRWDRF-NH2
modifications: also: oxorhenium(V) N3S1 chelate: C7 SG + backbone N of H5, F6, C7, bridge at 7 via Re(V)=O, other end not in the chain
B2: metallopeptide 4-7 (peptide)
peptide: YV[Nle]GHCFRWDRF-NH2
modifications: also: oxorhenium(V) N3S1 chelate: C6 SG + backbone N of G4, H5, C6, bridge at 6 via Re(V)=O, other end not in the chain
B3: metallopeptide 4-9 (peptide)
peptide: YV[Nle]CGHFRWDRF-NH2
modifications: also: oxorhenium(V) N3S1 chelate: C4 SG + backbone N of V2, X3, C4, bridge at 4 via Re(V)=O, other end not in the chain
B4: metallopeptide 1-4 (peptide)
peptide: Ac-SYS[Nle]EHFRWGCKPV-NH2
modifications: also: oxorhenium(V) N3S1 chelate at Cys11
B5: metallopeptide 2-11 (peptide)
peptide: Ac-SYS[dC][Nle]EHFRWGKPV-NH2
modifications: also: oxorhenium(V) N3S1 chelate at D-Cys4
B6: metallopeptide 1-2 (peptide)
peptide: Ac-SYS[Nle]EHFRWGKGCV-NH2
modifications: also: oxorhenium(V) N3S1 chelate at Cys13
B7: metallopeptide 4-8 (peptide)
peptide: YV[Nle]GCHFRWDRF-NH2
modifications: also: oxorhenium(V) N3S1 chelate: C5 SG + backbone N of X3, G4, C5, bridge at 5 via Re(V)=O, other end not in the chain
B8: metallopeptide 4-10 (peptide)
peptide: YVC[Nle]GHFRWDRF-NH2
modifications: bridge (positions not given here); not fully specified (bridges); printed as Tyr-Val-Cys-Nle-Gly-His-Phe-Arg-Trp-Asp-Arg-Phe-NH2.; also: oxorhenium(V) N3S1 complex
B9: metallopeptide 1-9 (peptide)
peptide: Ac-SYS[Nle]ECHFRWGKPV-NH2
modifications: also: oxorhenium(V) N3S1 chelate at Cys6
B10: metallopeptide 1-10 (peptide)
peptide: Ac-SYS[Nle]CEHFRWGKPV-NH2
modifications: also: oxorhenium(V) N3S1 chelate at Cys5
B11: metallopeptide 10-3 (peptide)
peptide: [dF]QWA[dV]CHLL-NH2
modifications: bridge (positions not given here) via ReOCl3(PPh3)2; also: oxorhenium(V) N3S1 tetradentate complex at Cys 6
B12: metallopeptide 10-4 (peptide)
peptide: [dF]QW[dA]VCHLL-NH2
modifications: bridge (positions not given here) via ReOCl3(PPh3)2; also: oxorhenium(V) N3S1 tetradentate complex at Cys 6
B13: metallopeptide 10-5 (peptide)
peptide: [dF]Q[dW]AVCHLL-NH2
modifications: bridge (positions not given here) via ReOCl3(PPh3)2; also: oxorhenium(V) N3S1 tetradentate complex at Cys 6
B14: metallopeptide 11-1 (peptide)
peptide: [dF]QWAVCHL-NH2
modifications: bridge (positions not given here) via ReOCl3(PPh3)2; also: oxorhenium(V) N3S1 tetradentate complex at Cys 6
B15: metallopeptide 11-2 (peptide)
peptide: [dF]QWAVCH-NH2
modifications: bridge (positions not given here) via ReOCl3(PPh3)2; also: oxorhenium(V) N3S1 tetradentate complex at Cys 6
B16: metallopeptide 11-3 (peptide)
peptide: [dF]QWAVC-NH2
modifications: bridge (positions not given here) via ReOCl3(PPh3)2; also: oxorhenium(V) N3S1 tetradentate complex at Cys 6
B17: metallopeptide 11-4 (peptide)
peptide: QWAVCHLL-NH2
modifications: also: bridge at 5 via oxorhenium(V) N3S1 chelate, other end not in the chain
B18: metallopeptide 11-5 (peptide)
peptide: WAVCHLL-NH2
modifications: also: bridge at 4 via oxorhenium(V) N3S1 chelate, other end not in the chain
B19: metallopeptide 11-6 (peptide)
peptide: AVCHLL-NH2
modifications: also: bridge at 3 via oxorhenium(V) N3S1 chelate, other end not in the chain
B20: metallopeptide 11-7 (peptide)
peptide: QWAVCHL-NH2
modifications: also: bridge at 5 via oxorhenium(V) N3S1 chelate, other end not in the chain
B21: metallopeptide 11-8 (peptide)
peptide: WAVCHL-NH2
modifications: also: bridge at 4 via oxorhenium(V) N3S1 chelate, other end not in the chain
B22: metallopeptide 11-9 (peptide)
peptide: AVCHL-NH2
modifications: also: bridge at 3 via oxorhenium(V) N3S1 chelate, other end not in the chain
B23: metallopeptide 11-11 (peptide)
peptide: WAVCH-NH2
modifications: also: bridge at 4 via oxorhenium(V) N3S1 chelate, other end not in the chain
B24: metallopeptide 11-12 (peptide)
peptide: AVCH-NH2
modifications: also: bridge at 3 via oxorhenium(V) N3S1 chelate, other end not in the chain
B25: metallopeptide 11-13 (peptide)
peptide: QWAVC-NH2
modifications: also: bridge at 5 via oxorhenium(V) N3S1 chelate, other end not in the chain
B26: metallopeptide 11-14 (peptide)
peptide: WAVC-NH2
modifications: also: bridge at 4 via oxorhenium(V) N3S1 chelate, other end not in the chain
B27: metallopeptide 12-1 (peptide)
peptide: [dF]QWVCGHLL-NH2
modifications: bridge (positions not given here) via ReOCl3(PPh3)2; also: oxorhenium(V) N3S1 tetradentate complex at Cys 5
B28: metallopeptide 12-2 (peptide)
peptide: [dF]QWACVHLL-NH2
modifications: bridge (positions not given here) via ReOCl3(PPh3)2; also: oxorhenium(V) N3S1 tetradentate complex at Cys 5
B29: metallopeptide 12-3 (peptide)
peptide: [dF]QWVCVHLL-NH2
modifications: bridge (positions not given here) via ReOCl3(PPh3)2; also: oxorhenium(V) N3S1 tetradentate complex at Cys 5
B30: metallopeptide 12-4 (peptide)
peptide: [dF]QWVCHLL-NH2
modifications: bridge (positions not given here) via ReOCl3(PPh3)2; also: oxorhenium(V) N3S1 tetradentate complex at Cys 5
B31: metallopeptide 12-6 (peptide)
peptide: [dF]QWCVHLL-NH2
modifications: bridge (positions not given here) via ReOCl3(PPh3)2; also: oxorhenium(V) N3S1 tetradentate complex at Cys 4

Each binder was assayed against melanocortin-1 receptor (MC1-R) of B-16 mouse melanoma cells (mouse) (UniProt Q01727) (assay: 125I-NDP-α-MSH competition, B-16 membranes).
melanocortin-1 receptor (MC1-R) of B-16 mouse melanoma cells (mouse), sequence (Q01727 whole entry): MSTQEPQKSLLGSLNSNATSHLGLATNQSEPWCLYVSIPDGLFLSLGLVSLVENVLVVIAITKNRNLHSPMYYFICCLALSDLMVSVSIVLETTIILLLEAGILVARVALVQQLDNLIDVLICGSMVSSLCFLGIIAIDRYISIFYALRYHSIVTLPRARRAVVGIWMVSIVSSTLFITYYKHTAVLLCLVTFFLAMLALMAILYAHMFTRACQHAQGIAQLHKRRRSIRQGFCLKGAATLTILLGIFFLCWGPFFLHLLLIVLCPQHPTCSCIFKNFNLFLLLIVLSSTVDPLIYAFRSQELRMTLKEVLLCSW

In order of falling % Inhibition at 1 µM:
1. B2  4%
2. B3  1%
3. B1  -8%

Each binder was assayed against human melanocortin-5 receptor (hMC5-R) (human) (UniProt P33032) (assay: 125I-NDP-α-MSH competition, hMC5-R membranes).
human melanocortin-5 receptor (hMC5-R) (human), sequence (P33032 whole entry): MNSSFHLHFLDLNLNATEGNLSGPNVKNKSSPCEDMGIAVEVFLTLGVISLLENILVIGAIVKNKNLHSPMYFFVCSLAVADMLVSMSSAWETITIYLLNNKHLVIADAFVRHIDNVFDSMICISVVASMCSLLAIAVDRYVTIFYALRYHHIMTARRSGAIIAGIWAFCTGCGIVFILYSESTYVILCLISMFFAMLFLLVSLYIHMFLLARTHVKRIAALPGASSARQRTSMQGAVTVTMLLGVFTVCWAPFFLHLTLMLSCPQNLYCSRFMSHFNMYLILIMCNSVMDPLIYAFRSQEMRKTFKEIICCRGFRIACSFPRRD

In the case of B4, the % Inhibition at 1 µM is reported as 6%.

What follows are binders tested against human melanocortin-3 receptor (hMC3-R) (human) (UniProt P41968) (assay: 125I-NDP-α-MSH competition, hMC3-R membranes).
human melanocortin-3 receptor (hMC3-R) (human), sequence (P41968 whole entry): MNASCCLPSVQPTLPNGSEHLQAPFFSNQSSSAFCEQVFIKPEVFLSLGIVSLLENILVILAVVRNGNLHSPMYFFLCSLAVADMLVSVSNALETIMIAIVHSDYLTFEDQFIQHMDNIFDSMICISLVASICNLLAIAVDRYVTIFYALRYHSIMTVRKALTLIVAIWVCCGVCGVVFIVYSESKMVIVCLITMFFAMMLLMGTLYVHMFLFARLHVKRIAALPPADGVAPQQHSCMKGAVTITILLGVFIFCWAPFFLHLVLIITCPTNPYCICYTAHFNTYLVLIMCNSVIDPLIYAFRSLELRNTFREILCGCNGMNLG

In order of rising % Inhibition at 1 µM:
1. B5  5%
2. B6  6%

Each binder was assayed against human melanocortin-4 receptor (hMC4-R) (human) (UniProt P32245) (assay: 125I-NDP-α-MSH competition, hMC4-R membranes).
human melanocortin-4 receptor (hMC4-R) (human), sequence (P32245 whole entry): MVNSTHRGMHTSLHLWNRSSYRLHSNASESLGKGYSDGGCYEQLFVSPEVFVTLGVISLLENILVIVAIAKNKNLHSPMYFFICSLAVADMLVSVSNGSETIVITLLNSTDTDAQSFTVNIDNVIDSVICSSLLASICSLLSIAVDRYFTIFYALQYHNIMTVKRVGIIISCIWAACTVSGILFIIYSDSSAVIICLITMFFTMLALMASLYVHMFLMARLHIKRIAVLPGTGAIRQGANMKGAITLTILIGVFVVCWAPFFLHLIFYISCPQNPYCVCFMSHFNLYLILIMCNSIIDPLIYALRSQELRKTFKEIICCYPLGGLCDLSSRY

In order of falling % Inhibition at 1 µM:
1. B10  7%
2. B2  4%
3. B3  4%
4. B9  3%
5. B8  2%
6. B7  -1%

These binders were tested against bombesin receptor of rat brain membranes (rat) (assay: 125I-Bombesin competition, rat brain membranes).

In order of falling % Inhibition:
1. B14  98%
2. B15  25%
3. B17  25%
4. B18  18%
5. B29  14%
6. B21  13%
7. B31  10%
8. B26  8%
9. B11  7%
10. B22  7%
11. B13  6%
12. B19  6%
13. B20  5%
14. B24  5%
15. B30  5%
16. B28  3%
17. B12  2%
18. B27  2%
19. B23  -1%
20. B25  -50%
21. B16  -81%
